Test results taken from IntAct's records for PubMed 21850687.

Columns and labels:
[1] = molecular target: prdx3_human PRDX3 (UniProt P30048)
[2] = molecular target: prdx3_human PRDX3 (UniProt P30048); remark: listed apart in the source

Sequence of UniProt P30048 (P30048 whole entry): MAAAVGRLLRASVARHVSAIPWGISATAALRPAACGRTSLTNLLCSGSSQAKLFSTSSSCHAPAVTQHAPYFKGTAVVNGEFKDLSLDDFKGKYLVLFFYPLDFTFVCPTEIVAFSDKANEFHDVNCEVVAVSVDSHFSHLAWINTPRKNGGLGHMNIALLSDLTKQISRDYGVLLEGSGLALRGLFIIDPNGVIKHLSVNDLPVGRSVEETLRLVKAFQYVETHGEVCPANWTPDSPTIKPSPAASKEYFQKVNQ

Row | Substance | effect of a mutation on the interaction [1] | effect of a mutation on the interaction [2]
1 | Leucine-rich repeat serine/threonine-protein kinase 2 (Homo sapiens), Q5S007 G2019V;I2020F | disrupting interaction | –
2 | Leucine-rich repeat serine/threonine-protein kinase 2 (Homo sapiens), Q5S007 G2019S | – | increasing interaction
